From patent publication US20190177410A1 (Regeneron, published 2019)

Experiments:
Assay in all cases: cell-based or functional assay
[1] = target: T1, full-length human APLNR (hAPLNR) (human, UniProt P35414 1-380)
T1 sequence: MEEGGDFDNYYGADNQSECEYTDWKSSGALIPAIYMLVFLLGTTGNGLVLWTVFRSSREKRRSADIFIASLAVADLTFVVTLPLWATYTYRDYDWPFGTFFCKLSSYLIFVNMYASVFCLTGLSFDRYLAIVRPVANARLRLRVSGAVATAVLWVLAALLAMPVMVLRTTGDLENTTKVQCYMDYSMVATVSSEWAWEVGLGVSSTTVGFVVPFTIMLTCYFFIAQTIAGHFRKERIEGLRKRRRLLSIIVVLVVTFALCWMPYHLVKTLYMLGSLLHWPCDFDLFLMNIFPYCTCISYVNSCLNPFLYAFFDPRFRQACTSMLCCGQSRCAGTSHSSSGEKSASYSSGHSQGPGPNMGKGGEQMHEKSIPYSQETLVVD

[2] = target: T2, human Apelin receptor (hAPLNR) of PathHunter eXpress AGTRL1 CHO-K1 beta-Arrestin cells (human, UniProt P35414 1-380)
T2 sequence: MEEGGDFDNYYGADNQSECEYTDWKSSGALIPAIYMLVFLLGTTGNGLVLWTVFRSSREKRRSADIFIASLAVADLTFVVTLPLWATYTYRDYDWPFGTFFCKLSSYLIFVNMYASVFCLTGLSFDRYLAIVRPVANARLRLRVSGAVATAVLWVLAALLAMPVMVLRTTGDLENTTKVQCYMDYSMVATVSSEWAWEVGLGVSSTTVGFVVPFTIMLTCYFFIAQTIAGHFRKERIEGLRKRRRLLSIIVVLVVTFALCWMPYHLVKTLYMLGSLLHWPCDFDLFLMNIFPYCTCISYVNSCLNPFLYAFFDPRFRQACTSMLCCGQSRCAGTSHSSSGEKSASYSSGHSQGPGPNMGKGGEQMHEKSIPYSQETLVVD

[3] = target: T1, full-length human APLNR (hAPLNR); remark: listed apart in the source
[4] = target: T1, full-length human APLNR (hAPLNR); remark: listed apart in the source
[5] = target: T1, full-length human APLNR (hAPLNR); remark: listed apart in the source

B1: H4H9093P-APN10-(G4S)3 (antibody, V domains shown)
VH: EVQLVESGGGLVKPGGSLRLSCAASGITFSNAWMSWVRQAPGKGLEWVGRFKGKADGGTVDYAAPVKGRFTISRDDSKNTLYLQMNSLKNEDTAVYYCTTGRITMVRGVLGYWGQGTLVTVSS
VL: not shown
- IC50 [M], in the presence of 100 pM Apelin (7.5 uM Forskolin), CRE-luc [1]: 3.2e-08 M
- % Activation at 500 nM antibody or Apelin-antibody fusion, PathHunter beta-Arrestin assay [2]: 5%
- EC50 [M], PathHunter beta-Arrestin assay [2]: 6.5e-09 M
- EC50 [M] (7.5 uM Forskolin), CRE-luc [3]: 1.4e-09 M

B2: H4H9092P (antibody, human IgG4, V domains shown)
VH: EVQLVESGGGLVKPGGSLRLSCAASGITFSNAWMSWVRQAPGKGLEWVGRIKSKVDGGTIDYAAPVKGRFTISRDDSKNTLYLQMNSLKTEDTAVYYCTTGRITMVRGVLGYWGQGTLVTVSS
VL: not shown
- % Inhibition at 100 nM mAb, in the presence of 100 pM Apelin (at 10 uM Forskolin), CRE-luc [4]: 5%

B3: H2aM9222N (antibody, mouse IgG2a, V domains shown)
VH: EVQLVESGGGLVQPGGSLRLSCAASGFTFSNYWMSWVRQAPGKGLEWVANIKQDGSERYYVGSVKGRFTISRGDAENSLYLQMNSLRAEDTAVYYCARDRFGYSAYDKGVRYYYGMDVWGQGTTVTVSS
VL: DIQMTQSPSSLSASVGDRVTITCRASQGIRNDLGWYQQKPGKAPKRLIYAASSLQSGVPSRFSGSGSGTEFTLTISSLQPEDFATYYCLQHNSYPRTFGQGTKVEIK
- Activating EC50 (M), ratio of pERK1/2 to total ERK, CHO/hAPLNR cells [5]: 4.79e-08 M

B4: H2aM9228N (antibody, mouse IgG2a, V domains shown)
VH: EVQLVESGGGLVQPGGSLRLSCAASGFTFSNYWMSWVRLAPGKGLEWVANIKQDGSERYYVGSVKGRFTISRGDAKNSLYLQMNSLRAEDTAVYYCARDRFGYSAFDKGVRYYYGMDVWGQGTTVTVSS
VL: DIQMTQSPSSLSASVGDRVTITCRASQGIRNDLGWYQQKPGKAPKRLIYAASSLQSGVPSRFSGSGSGTEFTLTISSLQPEDFATYYCLQHNSYPRTFGQGTKVEIK
- Activating EC50 (M), ratio of pERK1/2 to total ERK, CHO/hAPLNR cells [5]: 6.41e-08 M

B5: H2aM9232N (antibody, mouse IgG2a, V domains shown)
VH: QVKLVESGGGVVQPGRSLRLSCAASGFTFSNYVIHWVRQAPGKGLEWVAVIWYDGSNKYYADSVKGRFTISRDNSKNTLYLQMNSLRAEDTAVYYCARDRVVRGVDYYYYYGLDVWGQGTSVTVSS
VL: EIVMTQSPATLSVSPGERATLSCRASQSVRSNLAWYQQKPGQAPRLLIYGASSRATGIPARFSGTGSGTEFTLTISSLQSDDFAVYYCQQYNKWPRTFGQGTKVEIK
- Inhibiting IC50 (M), ratio of pERK1/2 to total ERK, CHO/hAPLNR cells [5]: 2.09e-07 M
